Laboratory results as given in patent publication US20150283227A1, “SYNTHETIC ENV PROTEINS” (priority 2012, published 2015).
Where “and” joins values, the source holds several entries; their conditions need not be identical. Identical values can stand only once. Like-named read-outs stand apart in the source and are kept apart here. Where a SMILES comes first, the peptide text is derived from it. [ ]: non-standard residue; d: D form. ξ: configuration not given here. Orn(CH(NH2)2) = NC(N)NCCC[C@H](N)C(=O)O; Ile(3ξ) = CCC(C)[C@H](N)C(=O)O; Thr(3ξ) = CC(O)[C@H](N)C(=O)O

What was measured:
[1] = target: Man3GlcNAc2 V1V2 glycopeptide, DMSO-oxidized disulfide-linked dimer (HIV-1 strain AE.CM244 (A244)); assay: SPR, DMSO-oxidized dimer 1-10 µg/mL over CH58 UCA captured on anti-IgG
[2] = target: Man5GlcNAc2 V1V2 glycopeptide, DMSO-oxidized disulfide-linked dimer (HIV-1 strain AE.CM244 (A244)); assay: as above
PG9 = conditions: NMR studies, Man5GlcNAc2-Asn alone; read-out: Kd for binding of PG9; cited from earlier work
BnAb PG9 = type: binding, human
Protocol: V1V2 glycopeptide binding Kd and rate constant measurements were carried out on a BIAcore 3000 instrument using an anti-human Ig Fc capture assay as described earlier (Alam, S. M.; McAdams, M.; Boren, D.; Rak, M.; Scearce, R. M.; Gao, F.; Camacho, Z. T.; Gewirth, D.; Kelsoe, G.; Chen, P.; Haynes, B. F. J. Immunol. 2007, 178, 4424-4435.). Anti-human IgG Fc antibody (Sigma Chemicals) was immobilized on a CM5 sensor chip to about 10000 response units (RU), and each antibody was captured to about 300 RU. Anti-RSV Synagis mAb was captured on the same sensor chip as a control surface. Non-specific binding and drift in signal was double referenced by subtracting binding to the control surface and blank buffer flow for each of the peptide binding interactions. All curve-fitting analyses were performed using global fit of multiple titrations to the 1:1 Langmuir model. All data analysis was performed using the BIAevaluation 4.1 analysis software (GE Healthcare).

BnAb CH01 = assay: SPR binding of V1V2 peptides/glycopeptides to captured mAb CH01; set-up: species or system human
V2 mAb CH58 = assay: SPR binding of V1V2 peptides/glycopeptides to captured V2 mAb CH58; set-up: species or system human
V2 mAb CH59 = assay: SPR binding of V1V2 peptides to captured V2 mAb CH59; set-up: species or system human; conditions: Example 6; peptide oxidized by solubilization in DMSO, 50 ug/mL
Description: FIGS. 42A-42D. Selective binding of V1V2 BnAbs to mannose derivatized V1V2 glycopeptides but not to aglycone or GlcNAc2 V1V2 peptides. SPR curves showing preferential binding of PG9 and CH01 BnAbs to Man5—(FIG. 42A) and Man3—(FIG. 42B) GlcNAc2 V1V2 glycopeptides but not to GlcNAc2 (FIG. 42C) and aglycone (FIG. 42D) peptides. By contrast, V2 mAbs CH58 and CH59 bound to both aglycone ([…]) and GlcNAc2 (FIG. 42D) V1V2 peptides. Each V1V2 peptide was oxidized by solubilization in DMSO and injected over the indicated MAb at 50 ug/mL. Data shown is after reference subtraction of non-specific signal measured over the control mAb (Synagis). Binding data are representative of at least three experiments for Man5 and Man3 V1V2 peptides and two experiments for GlcNAc2 and aglycone V1V2.
V1V2 glycopeptide binding Kd and rate constant measurements were carried out on BIAcore 3000 instruments as described earlier (Alam et al, Immunol. 178(7):4424-4435 (2007), Alam et al, J. Virol. 82(1):115-125 (2008)). Anti-human IgG Fc antibody (Sigma Chemicals) was immobilized on either a CM3 or CM5 (CM3 for kinetics and Kd determination) sensor chip (to minimize non-specific binding of peptides to chip matrix) to about 5000 Resonance Unit (RU) and each antibody was captured to about 100-200 RU on individual flow cells, in addition to one flow cell with the control Synagis mAb on the same sensor chip. […]

PG9 UCA = assay: SPR binding to unmutated ancestor of PG9; set-up: species or system human; conditions: for SPR binding to PG9 UA: Example 1
Protocol: (§1) Only the V1/V2 mAb CH58 bound to the glycan-deficient (aglycone) peptide (FIG. 9A). V1/V2 bNAbs ([…], CH01) bound weakly to V1/V2 GlcNAc2 peptide (FIG. 9B). In contrast, both bNAbs PG9 and CH01 bound avidly to the glycopeptides, V1/V2 Man3GlcNAc2 and V1/V2 Man5GlcNAc2 (FIGS. 9C and 9D). CH58 bound weakly to both glycopeptides. Each of the mAbs was captured on a human Fc specific IgG directly immobilized on a BIAcore CM5 sensor chip. Each of the V1/V2 peptides (3 min at 50 uL/min) was injected over the mAb captured surface and SPR binding was monitored on a BIAcore 3000 instrument. Non-specific binding of peptides was subtracted following measurement of signal on a surface with a control ant-RSV mab Synagis.
(§2) The binding Kd (disassociation constant) of the UAs ranges from about 0.15 to 0.2 μM.
(§3) V1V2 glycopeptide binding Kd and rate constant measurements were carried out on BIAcore 3000 instruments as described earlier (Alam et al, Immunol. 178(7):4424-4435 (2007), Alam et al, J. Virol. 82(1):115-125 (2008)). Anti-human IgG Fc antibody (Sigma Chemicals) was immobilized on either a CM3 or CM5 (CM3 for kinetics and Kd determination) sensor chip (to minimize non-specific binding of peptides to chip matrix) to about 5000 Resonance Unit (RU) and each antibody was captured to about 100-200 RU on individual flow cells, in addition to one flow cell with the control Synagis mAb on the same sensor chip. Non-specific binding of V1V2 glycopeptide was double-referenced by substracting the control surface and blank buffer flow for each mAb-V1V2 glycopeptide binding interaction. […] SPR curve fitting analysis was performed using global fit of multiple titrations to the 1:1 Langmuir model. All data analysis was performed using the BIAevaluation 4.1 analysis software (GE Healthcare).

CH01 UCA = assay: SPR binding to unmutated ancestor of CH01; set-up: species or system human; conditions: for SPR binding to CH01 UA: Example 1
Protocol: as §1, §2, §3

CH58 UCA = assay: SPR binding to unmutated ancestor of CH58; set-up: species or system human; conditions: Example 1
Protocol: as §1, §3

697D = assay: SPR binding to conformational V2 mAb 697D; conditions: Example 1
[3] = Aqueous solubility in phosphate buffer; type: physicochemical
[4] = target: Man5GlcNAc2 V1V2 glycopeptide, DMSO-oxidized disulfide-linked dimer (HIV-1 strain AE.CM244 (A244)); assay: SPR kinetics, DMSO-oxidized dimer injected over captured mAb
[5] = target: Man3GlcNAc2 V1V2 glycopeptide, DMSO-oxidized disulfide-linked dimer (HIV-1 strain AE.CM244 (A244)); assay: SPR kinetics, mAb captured on anti-IgG, DMSO-oxidized dimer injected; 1:1 Langmuir
[6] = target: Man5GlcNAc2 V1V2 glycopeptide, DMSO-oxidized disulfide-linked dimer (HIV-1 strain AE.CM244 (A244)); assay: as above
[7] = target: Man3GlcNAc2 V1V2 (2), not deliberately oxidized (HIV-1 strain AE.CM244 (A244)); assay: SPR, BIAcore 3000, PG9 captured on anti-human Ig Fc, glycopeptide as analyte; 1:1 Langmuir global fit
[8] = target: Man5GlcNAc2 V1V2 (1), not deliberately oxidized (HIV-1 strain AE.CM244 (A244)); assay: as above
[9] = target: Man5GlcNAc2 V1V2 glycopeptide, DMSO-oxidized disulfide-linked dimer (HIV-1 strain AE.CM244 (A244)); assay: SPR kinetics, DMSO-oxidized dimer; reference PG9
[10] = target: Man5GlcNAc2 V1V2 glycopeptide, DMSO-oxidized disulfide-linked dimer (HIV-1 strain AE.CM244 (A244)); assay: SPR kinetics, DMSO-oxidized dimer; reference CH58 UCA
[11] = target: Man3GlcNAc2 V1V2 glycopeptide, DMSO-oxidized disulfide-linked dimer (HIV-1 strain AE.CM244 (A244)); assay: SPR kinetics, mAb captured on anti-IgG, DMSO-oxidized dimer injected; faster component of the dissociation phase
[12] = target: Man5GlcNAc2 V1V2 glycopeptide, DMSO-oxidized disulfide-linked dimer (HIV-1 strain AE.CM244 (A244)); assay: as above
[13] = target: Man5GlcNAc2 V1V2 glycopeptide, DMSO-oxidized disulfide-linked dimer (HIV-1 strain AE.CM244 (A244)); assay: SPR kinetics, DMSO-oxidized dimer; reference CH01
[14] = Example 6, peptide solubilized/oxidized in DMSO, 50 μg/mL
[15] = listed as V1V2 aglycone peptide

CH58 UCA (antibody)
Kd [1]: 0.6 µM
Kd [2]: 0.5 µM

CC(=O)N[C@@H]1[C@@H](O)[C@H](O[C@@H]2O[C@H](CO)[C@@H](O[C@@H]3O[C@H](CO[C@H]4O[C@H](CO[C@H]5O[C@H](CO)[C@@H](O)[C@H](O)[C@@H]5O)[C@@H](O)[C@H](O[C@H]5O[C@H](CO)[C@@H](O)[C@H](O)[C@@H]5O)[C@@H]4O)[C@@H](O)[C@H](O[C@H]4O[C@H](CO)[C@@H](O)[C@H](O)[C@@H]4O)[C@@H]3O)[C@H](O)[C@H]2NC(C)=O)[C@@H](CO)O[C@H]1NC(=O)C[C@H](N)C(=O)O [Man5GlcNAc2-Asn]
Kd (PG9): 1000 to 2000 µM and 1600 µM

CCC(C)[C@H](NC(=O)[C@@H]1CCCN1C(=O)[C@@H](NC(=O)[C@@H](NC(=O)[C@H](CC(=O)O)NC(=O)[C@H](CC(C)C)NC(=O)[C@H](CCCCN)NC(=O)[C@H](Cc1ccc(O)cc1)NC(=O)[C@H](Cc1ccccc1)NC(=O)[C@H](CC(C)C)NC(=O)[C@H](C)NC(=O)[C@H](Cc1cnc[nH]1)NC(=O)[C@@H](NC(=O)[C@H](CCCCN)NC(=O)[C@H](CCC(N)=O)NC(=O)[C@H](CCCCN)NC(=O)[C@H](CCCCN)NC(=O)[C@H](CC(=O)O)NC(=O)[C@H](CCCNC(=N)N)NC(=O)[C@H](CC(C)C)NC(=O)[C@H](CCC(=O)O)NC(=O)[C@@H](NC(=O)[C@@H](NC(=O)[C@H](CCSC)NC(=O)[C@H](CC(N)=O)NC(=O)[C@H](Cc1ccccc1)NC(=O)[C@H](CO)NC(=O)[C@H](CS)NC(=O)[C@H](CC(N)=O)NC(=O)[C@H](CCCNC(N)N)NC(=O)[C@@H](NC(=O)[C@H](CCC(=O)O)NC(=O)[C@H](CC(=O)O)NC(=O)[C@@H](NC(=O)[C@@H](NC(C)=O)C(C)CC)C(C)O)C(C)C)C(C)O)C(C)O)C(C)C)C(C)CC)C(C)C)C(N)=O (stereo partly drawn) [Aglycone V1V2] (Ac-[Ile(3ξ)][Thr(3ξ)]DEV[Orn(CH(NH2)2)]NCSFNM[Thr(3ξ)][Thr(3ξ)]ELRDKKQKVHALFYKLD[Ile(3ξ)]VP[Ile(3ξ)]-NH2)
SPR binding to PG9 (BnAb PG9; Example 5, peptides 200 μg/mL, glycans 25 μg/mL over captured PG9): not detected
SPR binding to PG9 (BnAb PG9; Example 5, peptides 200 μg/mL, glycans 25 μg/mL over captured PG9, listed as V1V2 aglycone): minimal to no binding
SPR binding to PG9 (BnAb PG9; [14]): no binding
SPR binding to CH01 (BnAb CH01; Example 1, peptide injected over captured mAb): not to the aglycone peptide
SPR binding to CH01 (BnAb CH01; [14]): no binding
SPR binding to CH58 (V2 mAb CH58; Example 1, antigen injected over captured mAb): bound
SPR binding to CH58 (V2 mAb CH58; Example 6, peptide solubilized/oxidized in DMSO, 1-50 μg/mL): retained
SPR binding to CH59 (V2 mAb CH59): bound
SPR binding to PG9 UA (PG9 UCA): not to the aglycone peptide
SPR binding to PG9 UA (PG9 UCA; [15]): no binding
SPR binding to PG9 UCA (PG9 UCA; Example 6): neither UCAs bound
SPR binding to CH01 UA (CH01 UCA): not to the aglycone peptide
SPR binding to CH01 UA (CH01 UCA; [15]): no binding
SPR binding to CH01 UCA (CH01 UCA; Example 6): neither UCAs bound
SPR binding to CH58 UA (CH58 UCA): no binding
SPR binding to 697D (697D): not to the aglycone peptide
aqueous solubility [3]: Poor aqueous solubility

PG9 (antibody)
fold higher affinity than CH01 for the same peptide [4]: 2 fold
Kd [5]: 0.0371 µM
koff [5]: 0.000147 s⁻¹
kon [5]: 3970 M⁻¹ s⁻¹
Kd [6]: 0.0294 µM
koff [6]: 0.000271 s⁻¹
kon [6]: 9200 M⁻¹ s⁻¹
Kd [7]: 0.119 µM
Kd [8]: 0.311 µM

PG9 UCA (antibody)
fold weaker binding than the mature BnAb [9]: 3 fold
fold higher affinity than the UCA of CH58 [10]: 5 fold
kon [5]: 5330 M⁻¹ s⁻¹
kon [6]: 7410 M⁻¹ s⁻¹
Kd [11]: 1.06 µM
koff [11]: 0.00566 s⁻¹
Kd [12]: 0.0976 µM
koff [12]: 0.000723 s⁻¹

CH01 UCA (antibody)
fold weaker binding than the mature BnAb [13]: 3 fold
fold higher affinity than the UCA of CH58 [10]: 5 fold
kon [5]: 2060 M⁻¹ s⁻¹
kon [6]: 8490 M⁻¹ s⁻¹
Kd [11]: 1.78 µM
koff [11]: 0.00363 s⁻¹
Kd [12]: 0.118 µM
koff [12]: 0.000721 s⁻¹
